This is an account of results in paper PMC11659472 (Communications Biology, 2024).

As a reminder, the stoichiometry N is a count of units in the complex or per binding partner.

This series concerns the molecule itself. Kind of series: cryo-EM structure.

B1: Roseospirillum parvum LH1 αβ-polypeptide pair (complex)
chain 1: not shown
chain 2: MATTENVTSSTGLTEAEAKEFHAVYSQSAAGFLAVCAVAHVLAWMWRPFWPGAEGWVMDTAQNLTFLA
Consider B1, for which the “stoichiometry N” value came to 16.
